B1: MNAT1 (parent)
chain: LAPIHKLEEALYEYQPLQIETYGP
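Also: lentivirally expressed fusions sorted by FACS into six bins by GFP to DsRed ratio, PSI derived from sequencing read proportions per bin multiplied by bin number.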

The variants in the data set derive from B1. The data set is described as follows: protein stability index of a GFP-peptide fusion (GPS, HEK-293T) (PSI 1-6); higher = more stable. As to conditions: c terminus: a fixed tail appended.
For LAPIHKLEEALYEYQPLQIETYMP [G23M], the protein stability index came to 2.17. With LAPIHKLEEALYEYQPLQIETYIP [G23I], the protein stability index came to 2.07. Consider LAPIHKLEEALYEYQPLQIETYRP [G23R], for which the protein stability index worked out at 1.15. Regarding LAPIHKLEEALYEYQPLQIETYFP [G23F], the protein stability index worked out at 1.92. As to LAPIHKLEEALYEYQPLQIETYVP [G23V], the protein stability index came out at 2.79.

For LAPIHKEEEALYEYQPLQIETYGP [L7E], the protein stability index was 3.98.

For LAPIHKKEEALYEYQPLQIETYGP [L7K], the protein stability index was found to be 3.54. Regarding LAPIHKVEEALYEYQPLQIETYGP [L7V], the protein stability index was determined as 2.76. The figure for LAPIHKLEEALYEYQPLQIETSGP [Y22S] is 2.4; for LAPIHKLEEALYEYQPLQIETFGP [Y22F] it is 3.02; for LAPIHKLEEALYEYQPLQIETIGP [Y22I] it is 1.81. LAPIHKLEEALYEYQPLQIETQGP [Y22Q]: the protein stability index worked out at 2.66. LAPIHKLEEALYEYQPLQIETCGP [Y22C]: the protein stability index was 1.96.

Consider LAPIHKLEEALYEYQPLQIETVGP [Y22V], for which the protein stability index was found to be 1.76. Turning to LAPIHKLEEALYEYQPLQIETKGP [Y22K], the protein stability index turned out to be 2.8. The figure for LAVIHKLEEALYEYQPLQIETYGP [P3V] is 2.7. LAWIHKLEEALYEYQPLQIETYGP [P3W]: the protein stability index came to 1.44.

For LAQIHKLEEALYEYQPLQIETYGP [P3Q], the protein stability index was 1.67. The figure for LAIIHKLEEALYEYQPLQIETYGP [P3I] is 2.72; for LAYIHKLEEALYEYQPLQIETYGP [P3Y] it is 2.18. Consider LACIHKLEEALYEYQPLQIETYGP [P3C], for which the protein stability index was 1.53.

On to PAPIHKLEEALYEYQPLQIETYGP [L1P], for which the protein stability index worked out at 2.3. On to CAPIHKLEEALYEYQPLQIETYGP [L1C], for which the protein stability index worked out at 1.25. With LAPIHKLEEALYEYYPLQIETYGP [Q15Y], the protein stability index was found to be 1.44. The figure for LAPIHKLEEALYEYAPLQIETYGP [Q15A] is 2.17.

Take LAPIHKLEEALYEYFPLQIETYGP [Q15F]: the protein stability index was 1.17. With LAPIHKLEEALYEYKPLQIETYGP [Q15K], the protein stability index amounted to 2.26.

As for LAPIHKLEEALYEYGPLQIETYGP [Q15G], the protein stability index is 1.52. As to LAPIHKLEEALYEYNPLQIETYGP [Q15N], the protein stability index came to 1.83. For LAPIHKLEEALYEYTPLQIETYGP [Q15T], the protein stability index came out at 2.2. The figure for LAPIHKLEETLYEYQPLQIETYGP [A10T] is 1.79; for LAPIHKLEEELYEYQPLQIETYGP [A10E] it is 3.04.

Consider LAPIHKLEEMLYEYQPLQIETYGP [A10M], for which the protein stability index was 1.45.

Consider LAPIHKLEEYLYEYQPLQIETYGP [A10Y], for which the protein stability index was determined as 2.35. The figure for LAPDHKLEEALYEYQPLQIETYGP [I4D] is 2.78; for LAPQHKLEEALYEYQPLQIETYGP [I4Q] it is 2.7. As for LAPIHKLEEALYEYQPLFIETYGP [Q18F], the protein stability index came out at 2.9. The figure for LAPIHKLEEALYEYQPLSIETYGP [Q18S] is 1.86. For LAPIHKLEEALYEYQPLMIETYGP [Q18M], the protein stability index is 1.85. With LAPIHKLEEALYEYQPLNIETYGP [Q18N], the protein stability index was 1.92. LAPIHKLEEALYEYQPLCIETYGP [Q18C]: the protein stability index was 2.21. The figure for LAPIHKLEEALYEYQPLGIETYGP [Q18G] is 1.51; for LAPIHELEEALYEYQPLQIETYGP [K6E] it is 2.27; for LAPIHALEEALYEYQPLQIETYGP [K6A] it is 1.97.

For LAPIHKLEEALYEYQPLQIGTYGP [E20G], the protein stability index was 1.98.

Regarding LAPIHKLEEALYEYQPLQIERYGP [T21R], the protein stability index stood at 2.09.

For LAPIHKLEEALYEYQPLQIELYGP [T21L], the protein stability index turned out to be 3.23. The figure for LAPIHKLEEALYEYQPLQIEHYGP [T21H] is 1.62; for LAPIHKLEEALYEYQPLQIEYYGP [T21Y] it is 2.38. On to LAPIHKLEEALYEKQPLQIETYGP [Y14K], for which the protein stability index is 3.53. For the variant LAPIHKLEEALYEQQPLQIETYGP [Y14Q], the protein stability index came to 2.87. Regarding LAPIHKLEEALYEYQPLQIETYGK [P24K], the protein stability index was 2.29. The figure for LAPIHKLEEALYEYQPLQIETYGN [P24N] is 2.52; for LAPIHKLEEALYEYQPLQIETYGI [P24I] it is 2.04. The figure for LAPIHKLEEALYEYQPLQIETYGA [P24A] is 2.14; for LYPIHKLEEALYEYQPLQIETYGP [A2Y] it is 1.9; for LAPIHKLKEALYEYQPLQIETYGP [E8K] it is 2.52. The figure for LAPIHKLWEALYEYQPLQIETYGP [E8W] is 3.45; for LAPIHKLEEALYEYQPLQVETYGP [I19V] it is 2.63; for LAPIHKLEEALYEYQPLQKETYGP [I19K] it is 2.99. Regarding LAPIHKLEEAGYEYQPLQIETYGP [L11G], the protein stability index was 3.48. With LAPIHKLEEAKYEYQPLQIETYGP [L11K], the protein stability index was 3.38.

Turning to LAPIHKLEEAEYEYQPLQIETYGP [L11E], the protein stability index was found to be 3.57. The figure for LAPIHKLEEACYEYQPLQIETYGP [L11C] is 2.69; for LAPIHKLEEADYEYQPLQIETYGP [L11D] it is 3.71.

With LAPIHKLEEAIYEYQPLQIETYGP [L11I], the protein stability index is 2.3. Take LAPIHKLEEALYEYQPSQIETYGP [L17S]: the protein stability index was 3.45.

Consider LAPIHKLEEALYEYQPMQIETYGP [L17M], for which the protein stability index is 2.33. For LAPIHKLEEALYEYQPRQIETYGP [L17R], the protein stability index came out at 3.57. Regarding LAPIHKLEEALYEYQPFQIETYGP [L17F], the protein stability index is 1.84. On to LAPIGKLEEALYEYQPLQIETYGP [H5G], for which the protein stability index is 1.96. LAPIDKLEEALYEYQPLQIETYGP [H5D]: the protein stability index came to 2.33. For LAPIEKLEEALYEYQPLQIETYGP [H5E], the protein stability index was found to be 1.92. Turning to LAPICKLEEALYEYQPLQIETYGP [H5C], the protein stability index came to 1.64. The figure for LAPIAKLEEALYEYQPLQIETYGP [H5A] is 2.17; for LAPIRKLEEALYEYQPLQIETYGP [H5R] it is 2.56; for LAPIQKLEEALYEYQPLQIETYGP [H5Q] it is 2.92. As for LAPIHKLEEALCEYQPLQIETYGP [Y12C], the protein stability index was determined as 1.82. The figure for LAPIHKLEEALPEYQPLQIETYGP [Y12P] is 2.23; for LAPIHKLEEALTEYQPLQIETYGP [Y12T] it is 2.24. Consider LAPIHKLEEALLEYQPLQIETYGP [Y12L], for which the protein stability index worked out at 2.21.

Turning to LAPIHKLEVALYEYQPLQIETYGP [E9V], the protein stability index is 3.14. Consider LAPIHKLEDALYEYQPLQIETYGP [E9D], for which the protein stability index amounted to 2.25.

As to LAPIHKLEEALYEYQFLQIETYGP [P16F], the protein stability index is 1.44.

Turning to LAPIHKLEEALYEYQALQIETYGP [P16A], the protein stability index stood at 2.43. The figure for LAPIHKLEEALYEYQQLQIETYGP [P16Q] is 1.97; for LAPIHKLEEALYEYQLLQIETYGP [P16L] it is 1.88; for LAPIHKLEEALYEYQELQIETYGP [P16E] it is 2.67. The figure for LAPIHKLEEALYEYQVLQIETYGP [P16V] is 2.23; for LAPIHKLEEALYIYQPLQIETYGP [E13I] it is 2.17; for LAPIHKLEEALYYYQPLQIETYGP [E13Y] it is 1.61. As for LAPIHKLEEALYQYQPLQIETYGP [E13Q], the protein stability index worked out at 1.43. With LAPIHKLEEALYVYQPLQIETYGP [E13V], the protein stability index was 2.04. Turning to LAPIHKLEEALYPYQPLQIETYGP [E13P], the protein stability index is 1.68.

Values taken from the supplement of paper PMC10567573.
